Laboratory results reported in US6432922.
Where “and” joins values, the source holds several entries; their conditions need not be identical. Identical values can stand only once.

Key:
Test in all cases: cell-based or functional assay
[1] = biological target: Urokinase (Abbokinase), manufactured by Abbott Laboratories (UniProt P00749)
[2] = biological target: Purified human plasmin, obtained from Enzyme Research Laboratories, Inc. (human) (UniProt P00747)
[3] = biological target: Human rt-PA (Activase), obtained from Genentech Inc. (human) (UniProt P00750)
Sequence of Human rt-PA (Activase), obtained from Genentech Inc. (human) (P00750 36-562 limits assumed): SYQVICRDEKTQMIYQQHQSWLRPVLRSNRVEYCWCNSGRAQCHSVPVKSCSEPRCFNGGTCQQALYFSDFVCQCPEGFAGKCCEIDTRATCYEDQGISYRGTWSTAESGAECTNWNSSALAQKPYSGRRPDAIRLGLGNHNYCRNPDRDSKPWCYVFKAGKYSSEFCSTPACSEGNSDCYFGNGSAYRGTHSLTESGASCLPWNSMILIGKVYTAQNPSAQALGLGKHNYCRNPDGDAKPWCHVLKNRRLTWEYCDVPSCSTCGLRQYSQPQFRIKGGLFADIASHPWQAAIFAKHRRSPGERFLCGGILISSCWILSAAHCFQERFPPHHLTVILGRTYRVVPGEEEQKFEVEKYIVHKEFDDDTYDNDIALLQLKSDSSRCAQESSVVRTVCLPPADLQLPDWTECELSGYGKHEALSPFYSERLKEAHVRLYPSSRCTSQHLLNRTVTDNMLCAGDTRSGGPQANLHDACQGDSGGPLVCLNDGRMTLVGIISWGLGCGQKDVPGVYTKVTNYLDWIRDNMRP

Sequence of Purified human plasmin, obtained from Enzyme Research Laboratories, Inc. (human) (P00747 97-810 limits assumed): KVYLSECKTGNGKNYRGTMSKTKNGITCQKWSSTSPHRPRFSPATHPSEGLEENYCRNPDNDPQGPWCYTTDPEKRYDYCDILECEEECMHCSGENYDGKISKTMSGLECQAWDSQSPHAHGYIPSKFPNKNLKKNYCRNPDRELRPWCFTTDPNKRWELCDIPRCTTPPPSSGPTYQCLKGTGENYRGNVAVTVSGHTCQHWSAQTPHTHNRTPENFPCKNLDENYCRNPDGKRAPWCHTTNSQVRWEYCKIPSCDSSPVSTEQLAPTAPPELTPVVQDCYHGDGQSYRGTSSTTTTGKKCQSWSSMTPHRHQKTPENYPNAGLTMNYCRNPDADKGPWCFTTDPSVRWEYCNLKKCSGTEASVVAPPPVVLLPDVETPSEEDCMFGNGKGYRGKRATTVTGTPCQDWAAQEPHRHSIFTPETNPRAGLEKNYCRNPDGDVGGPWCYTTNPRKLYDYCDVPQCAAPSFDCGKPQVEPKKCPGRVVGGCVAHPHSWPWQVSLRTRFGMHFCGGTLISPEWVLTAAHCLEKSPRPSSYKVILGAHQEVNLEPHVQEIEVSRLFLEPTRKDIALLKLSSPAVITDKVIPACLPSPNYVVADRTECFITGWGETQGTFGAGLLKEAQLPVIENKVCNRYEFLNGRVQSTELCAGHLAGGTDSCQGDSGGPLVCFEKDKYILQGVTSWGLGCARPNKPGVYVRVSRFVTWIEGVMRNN

| Substance | IC50 [1] | IC50 [2] | IC50 [3] [nM] |
| --- | --- | --- | --- |
| benzenesulfonyl-D-seryl-azetidyl-argininal, trifluoroacetate salt (peptide) | < 100 nM | > 250 nM and < 2500 nM |  |
| benzyloxycarbonyl-D-seryl-2-aminobutanoyl-argininal (peptide) | < 100 nM |  | > 2500 |
| benzyloxycarbonyl-D-seryl-pipecolyl-argininal (peptide) | > 100 nM and < 250 nM |  | > 2500 |
| benzyloxycarbonyl-D-seryl-L-3,4-dehydroprolyl-argininal (peptide) | < 100 nM | > 100 nM and < 250 nM | > 2500 |
| benzyloxycarbonyl-D-seryl-2-norvalyl-argininal (peptide) | > 100 nM and < 250 nM |  | > 2500 |
| benzyloxycarbonyl-D-seryl-L-allylglycyl-argininal (peptide) | > 100 nM and < 250 nM | > 250 nM and < 2500 nM | > 2500 |

Results, then the substance that gave them:

| IC50 [1] | IC50 [2] | IC50 [3] [nM] | Substance |
| --- | --- | --- | --- |
| < 100 nM | > 250 nM and < 2500 nM | > 2500 | benzyloxycarbonyl-D-seryl-L-azetidine-2-carbonyl-argininal (peptide) |
| < 100 nM | > 250 nM and < 2500 nM | > 2500 | benzyloxycarbonyl-D-seryl-L-propargylglycyl-argininal (peptide) |
| < 100 nM | > 250 nM and < 2500 nM | > 2500 | benzyloxycarbonyl-D-seryl-L-β-cyanoalanine-argininal (peptide) |
